Assay results reported in article PMC6379431 (Nature Communications, 2019).
Changes are numbered by the printed parent chain. Names and notes keep the numbering of the source.

Biological target: the molecule itself
Assay: crystal structure

B1: mCldn3cryst P134G (domain or fragment)
chain: MSMGLEITGTSLAVLGWLCTIVCCALPMWRVSAFIGSSIITAQITWEGLWMNCVVQSTGQMQCKMYDSLLALPQDLQAARALIVVSILLAAFGLLVALVGAQATNAVQDETAKAKITIVAGVLFLLAALLTLVGVSWSANTIIRDFYNPLVPEAQKREMGAGLYVGWAAAALQLLGGALLAA
notes: also called P134G mutant; source: Sf9 insect cells (baculovirus), purified (as mCldn3cryst)
binding result: binds

B2: mCldn3cryst P134A (domain or fragment)
chain: B1 chain with G134A
notes: also called P134A mutant; source: Sf9 insect cells (baculovirus), purified (as mCldn3cryst)
binding result: binds
